In patent KR20230010676A (dated 2023):

Key:
Experiment in all cases: cell-based or functional assay
SARS-CoV-2 S N501Y = SARS-CoV-2 S N501Y (SARS-CoV-2, UniProt P0DTC2 14-1273)
SARS-CoV-2 S S477N = SARS-CoV-2 S S477N (SARS-CoV-2, UniProt P0DTC2 14-1273)
SARS-CoV-2 S N439K = SARS-CoV-2 S N439K (SARS-CoV-2, UniProt P0DTC2 14-1273)
SARS-CoV-2 S L452R = SARS-CoV-2 S L452R (SARS-CoV-2, UniProt P0DTC2 14-1273)
SARS-CoV-2 S E484K = SARS-CoV-2 S E484K (SARS-CoV-2, UniProt P0DTC2 14-1273)
SARS-CoV-2 S K417N = SARS-CoV-2 S K417N (SARS-CoV-2, UniProt P0DTC2 14-1273)
SARS-CoV-2 S T478K = SARS-CoV-2 S T478K (SARS-CoV-2, UniProt P0DTC2 14-1273)
SARS-CoV-2 S S494P = SARS-CoV-2 S S494P (SARS-CoV-2, UniProt P0DTC2 14-1273)
SARS-CoV-2 S A520S = SARS-CoV-2 S A520S (SARS-CoV-2, UniProt P0DTC2 14-1273)
SARS-CoV-2 S N501T = SARS-CoV-2 S N501T (SARS-CoV-2, UniProt P0DTC2 14-1273)
SARS-CoV-2 S A522S = SARS-CoV-2 S A522S (SARS-CoV-2, UniProt P0DTC2 14-1273)
SARS-CoV-2 S Y453F = SARS-CoV-2 S Y453F (SARS-CoV-2, UniProt P0DTC2 14-1273)
SARS-CoV-2 S P384L = SARS-CoV-2 S P384L (SARS-CoV-2, UniProt P0DTC2 14-1273)

Measured: S2E12의 중화 감소 (배)

B1: S2E12 (antibody, V domains shown)
VH: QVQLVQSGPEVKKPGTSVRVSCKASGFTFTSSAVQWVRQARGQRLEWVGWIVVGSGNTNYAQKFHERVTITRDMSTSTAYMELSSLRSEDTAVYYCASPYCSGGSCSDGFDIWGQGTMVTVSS
VL: DIVLTQTPGTLSLSPGERATLSCRASQSVSSSYLAWYQQKPGQAPRLLIYGASSRATGIPDRFSGSGSGTDFTLTISRLEPEDFAVYYCQQYVGLTGWTFGQGTKVEIK
notes: also called S2E12 WT; S2E12 wt
< 3 배: all assays above
